Experimental data reported in patent publication US7056731 (MAYO FOUNDATION FOR MEDICAL EDUCATION AND RESEARCH, dated 2006).
Positions count from the first letter of the chain named.

B1: wild type SULT2A1 polypeptide (reference human SULT2A1) (enzyme)
chain: MSDDFLWFEGIAFPTMGFRSETLRKVRDEFVIRDEDVIILTYPKSGTNWLAEILCLMHSKGDAKWIQSVPIWERSPWVESEIGYTALSESESPRLFSSHLPIQLFPKSFFSSKAKVIYLMRNPRDVLVSGYFFWKNMKFIKKPKSWEEYFEWFCQGTVLYGSWFDHIHGWMPMREEKNFLLLSYEELKQDTGRTIEKICQFLGKTLEPEELNLILKNSSFQSMKENKMSNYSLLSVDYVVDKAQLLRKGVSGDWKNHFTVAQAEDFDKLFQEKMADLPRELFPWE
notes: Recombinant protein expressed in COS-1 cells from pCR3.1 and used as an unpurified high speed supernatant cytosol preparation; The pair written here is its self-association into the homodimer; also called WT; WT enzyme
B2: SULT2A1 Ala261Thr allozyme (enzyme)
chain: B1 chain with A261T
notes: Recombinant variant made by site directed mutagenesis and expressed in COS-1 cells from pCR3.1; It was used as an unpurified cytosol preparation; also called codon Thr261 variant allozyme

Biological target: the molecule itself
Assay: gel filtration chromatography through Sephadex G-100 (self-association / homodimerization)
Experimental: Gel Filtration Chromatography: Gel filtration chromatography of recombinant human SULT2A1 was performed at 4° C. with a 2×25 cm column of Sephadex G-100 superfine. The mobile phase was 5 mM K phosphate buffer, pH 7.5, and 3 ml fractions were collected at a flow rate of approximately 1.8 mL per h. The fractions were assayed for SULT2A1 activity. Standards for column calibration were eluted separately and included Dextran Blue 2000, bovine serum albumin (67 kDa), ovalbumin (45 kDa), chymotrypsinogen A ([…]) and ribonuclease A (13.7 kDa).
The Ala261 Thr polymorphism is located within the dimerization motif at the C-terminus of the conserved 'Region IV' SULT signature sequence, and may alter the formation of the SULT2A1 homodimer. To test that hypothesis, recombinant WT and codon Thr261 variant allozyme preparations were subjected to gel filtration chromatography through Sephadex G-100.

Row | Protein | binding result
1 | B1 | binds
2 | B2 | no binding
